The values that follow are results of earlier work, collected in patent US6699832B2 (Pfizer Inc., priority 2000, dated 2004).

Where no end group is shown, it is not given here.

For series [1], the system named is neurotensin-1 and neurotensin-2 receptors. Particulars: non-selective antagonist.
A further series addresses neurotensin-2 receptor (Homo sapiens, UniProt O95665). Particulars: read-out: binding affinity at the neurotensin-2 receptor.
In the next series the target is neurotensin-1 receptor (Homo sapiens, UniProt P30989). The following applies: read-out: binding affinity at the neurotensin-1 receptor.
neurotensin-1 receptor, sequence (P30989 whole entry): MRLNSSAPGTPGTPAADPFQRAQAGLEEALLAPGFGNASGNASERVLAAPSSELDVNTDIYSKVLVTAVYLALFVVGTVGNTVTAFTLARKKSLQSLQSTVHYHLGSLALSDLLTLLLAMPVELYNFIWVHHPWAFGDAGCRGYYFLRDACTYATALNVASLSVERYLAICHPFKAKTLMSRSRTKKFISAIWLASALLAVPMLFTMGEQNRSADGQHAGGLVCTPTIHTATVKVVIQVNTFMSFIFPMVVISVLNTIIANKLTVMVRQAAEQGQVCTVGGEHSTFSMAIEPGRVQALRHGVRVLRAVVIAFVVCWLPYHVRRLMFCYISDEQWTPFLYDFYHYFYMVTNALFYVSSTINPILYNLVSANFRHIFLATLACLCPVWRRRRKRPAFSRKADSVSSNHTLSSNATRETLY

neurotensin-2 receptor, sequence (O95665 whole entry): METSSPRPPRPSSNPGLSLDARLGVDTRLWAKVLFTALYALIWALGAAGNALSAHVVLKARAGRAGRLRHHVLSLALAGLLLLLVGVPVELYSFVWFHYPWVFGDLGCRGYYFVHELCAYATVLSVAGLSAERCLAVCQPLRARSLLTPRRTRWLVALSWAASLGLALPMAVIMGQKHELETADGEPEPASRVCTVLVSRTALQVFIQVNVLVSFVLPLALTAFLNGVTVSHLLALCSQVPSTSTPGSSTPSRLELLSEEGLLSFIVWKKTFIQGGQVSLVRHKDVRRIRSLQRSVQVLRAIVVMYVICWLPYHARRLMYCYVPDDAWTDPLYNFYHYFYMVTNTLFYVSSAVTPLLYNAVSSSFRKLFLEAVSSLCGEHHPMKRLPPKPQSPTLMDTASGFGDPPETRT

Turning to `COc1cccc(OC)c1-c1cc(C(=O)NC2(C(=O)O)C3CC4CC(C3)CC2C4)nn1-c1ccc(C(=O)N(C)CCCN(C)C)cc1C(C)C` (stereo not drawn) [SR142948A], the “affinity at neurotensin-1 versus neurotensin-2 receptors (selectivity)” value in series [1] is “equal affinity”.

In the case of “Trp11 NT(1-13): NT(1-13) in which amino acid 11 is tryptophan; selective neurotensin-1 receptor agonist (QLYENKPRRPWIL; ends and bridges not checked; UniProt P30990 151-163, looked up, variant Y11W)”, the Kd with neurotensin-2 receptor was around 27 nM; in the series with neurotensin-1 receptor, around 1 nM.
